Tests used:
Details in all cases: remark: other sources report otherwise
[1] = target: T1, recombinant soluble homotrimeric HA of A/Egypt/3300-NAMRU3/08 (H5N1) (Influenza A virus A/Egypt/3300-NAMRU3/2008(H5N1)); experiment: HA microarray, BCC supernatant
[2] = target: recombinant homotrimeric HA A/duck/Yangzhou/02/05 H8N4 (Influenza A virus A/duck/Yangzhou/02/2005(H8N4)); experiment: protein microarray, purified IgG, trimeric HA
[3] = target: recombinant soluble homotrimeric HA, A/Wisconsin/67/05 H3N2 (Influenza A virus A/Wisconsin/67/2005(H3N2)); experiment: microarray, transfection SN IgG, trimeric HA
[4] = target: recombinant soluble homotrimeric HA, A/Solomon Islands/3/06 H1N1 (Influenza A virus A/Solomon Islands/3/2006(H1N1)); experiment: microarray, transfection SN IgG, trimeric HA
[5] = target: recombinant soluble homotrimeric HA, A/northern shoveler/California/HKWF115/07 H6N4 (Influenza A virus A/northern shoveler/California/HKWF115/2007(H6N1)); experiment: microarray, transfection SN IgG, trimeric HA
[6] = target: recombinant soluble homotrimeric HA, A/chicken/Vietnam/NCVD-016/08 H5N1 (Influenza A virus A/chicken/Vietnam/NCVD-016/2008(H5N1)); experiment: microarray, transfection SN IgG, trimeric HA
[7] = target: recombinant soluble homotrimeric HA, A/Egypt/3300-NAMRU3/08 H5N1 (Influenza A virus A/Egypt/3300-NAMRU3/2008(H5N1)); experiment: microarray, transfection SN IgG, trimeric HA
[8] = target: recombinant soluble homotrimeric HA, A/Indonesia/5/05 H5N1 (Influenza A virus A/Indonesia/5/2005(H5N1)); experiment: microarray, transfection SN IgG, trimeric HA
[9] = target: recombinant soluble homotrimeric HA, A/Japan/305/57 H2N2 (Influenza A virus A/Japan/305/1957(H2N2)); experiment: microarray, transfection SN IgG, trimeric HA
[10] = target: recombinant soluble homotrimeric HA, A/California/4/09 H1N1 (Influenza A virus A/California/04/2009(H1N1)); experiment: microarray, transfection SN IgG, trimeric HA
[11] = target: recombinant soluble homotrimeric HA, A/Vietnam/1203/04 H5N1 (Influenza A virus A/VietNam/1203/2004(H5N1)); experiment: microarray, transfection SN IgG, trimeric HA
[12] = target: recombinant soluble homotrimeric HA, A/duck/Yangzhou/02/05 H8N4 (Influenza A virus A/duck/Yangzhou/02/2005(H8N4)); experiment: microarray, transfection SN IgG, trimeric HA
[13] = target: recombinant soluble homotrimeric HA, A/South Carolina/1/18 H1N1 (Influenza A virus A/South Carolina/1/18 (H1N1)); experiment: microarray, transfection SN IgG, trimeric HA
[14] = target: recombinant soluble homotrimeric HA, A/Hong Kong/156/97 H5N1 (Influenza A virus A/Hong Kong/156/97 (H5N1)); experiment: microarray, transfection SN IgG, trimeric HA
[15] = target: recombinant soluble homotrimeric HA, A/Anhui/1/05 H5N1 (Influenza A virus A/Anhui/1/2005(H5N1)); experiment: microarray, transfection SN IgG, trimeric HA
[16] = target: recombinant soluble homotrimeric HA of A/chicken/Vietnam/NCVD-016/08 (H5N1) (Influenza A virus A/chicken/Vietnam/NCVD-016/2008(H5N1)); experiment: trimeric HA microarray, transfection supernatant set 2
[17] = target: recombinant soluble homotrimeric HA of A/Vietnam/1203/04 (H5N1) (Influenza A virus A/VietNam/1203/2004(H5N1)); experiment: as above
[18] = target: recombinant soluble homotrimeric HA of A/California/4/09 (H1N1) (Influenza A virus A/California/04/2009(H1N1)); experiment: as above
[19] = target: recombinant soluble homotrimeric HA of A/Indonesia/5/05 (H5N1) (Influenza A virus A/Indonesia/5/2005(H5N1)); experiment: as above
[20] = target: recombinant soluble homotrimeric HA of A/South Carolina/1/18 (H1N1) (Influenza A virus A/South Carolina/1/18 (H1N1)); experiment: as above
[21] = target: recombinant soluble homotrimeric HA of A/Japan/305/57 (H2N2) (Influenza A virus A/Japan/305/1957(H2N2)); experiment: as above
[22] = target: recombinant soluble homotrimeric HA of A/Anhui/1/05 (H5N1) (Influenza A virus A/Anhui/1/2005(H5N1)); experiment: as above
[23] = target: T1, recombinant soluble homotrimeric HA of …; experiment: as above
[24] = target: recombinant soluble homotrimeric HA of A/Netherlands/219/03 (H7N7) (Influenza A virus A/Netherlands/219/03(H7N7)); experiment: as above
[25] = target: T2, recombinant soluble homotrimeric HA of A/Solomon Islands/3/06 (H1N1) (Influenza A virus A/Solomon Islands/3/2006(H1N1)); experiment: as above
[26] = target: recombinant homotrimeric HA A/swine/Ontario/01911-2/99 H4N6 (Influenza A virus A/Swine/Ontario/01911-2/99 (H4N6)); experiment: protein microarray, purified IgG, trimeric HA
[27] = target: T2, recombinant soluble homotrimeric HA of …; experiment: trimeric HA microarray, transfection supernatant set 3

Row | Binder | Trimeric HA Binding: RLU [1] | Trimeric HA Binding: RLU [2] | Trimeric HA Binding: RLU [16] | Trimeric HA Binding: RLU [17] | Trimeric HA Binding: RLU [18] | Trimeric HA Binding: RLU [19] | Trimeric HA Binding: RLU [20] | Trimeric HA Binding: RLU [21] | Trimeric HA Binding: RLU [22] | Trimeric HA Binding: RLU [23] | Trimeric HA Binding: RLU [24] | Trimeric HA Binding: RLU [25] | Trimeric HA Binding: RLU [26] | further results
1 | TCN-555 (5246_L16) (antibody, V domains shown) VH: QVQLVQSGAEVKRPGSSVKVSCTASGGIFRKNAISWVRQAPGQGLEWMGGIIAVFNTANYAQKFQNRVKITADESGNTAYMELSSLTSDDTAVYYCASHPKYFYGSGSYPDFWGQGTLVTVSS VL: QSALTQPRSVSGSPGQSITISCTGGSSDIGASNSVSWYQQHPGKAPKLVIFDVTERPSGVPHRFSGSKSGNTASLTVSGLQPDDEADYFCCAYGGKYLVVFGGGTKVTVL | 42700 RLU | 375 RLU | – | – | – | – | – | – | – | – | – | – | – | Trimeric HA Binding: RLU [3]: 14700 RLU; Trimeric HA Binding: RLU [4]: 44600 RLU; Trimeric HA Binding: RLU [5]: 28700 RLU; Trimeric HA Binding: RLU [6]: 35200 RLU; Trimeric HA Binding: RLU [7]: 20000 RLU; Trimeric HA Binding: RLU [8]: 33900 RLU; Trimeric HA Binding: RLU [9]: 16700 RLU; Trimeric HA Binding: RLU [10]: 20200 RLU; Trimeric HA Binding: RLU [11]: 19300 RLU; Trimeric HA Binding: RLU [12]: 8540 RLU; Trimeric HA Binding: RLU [13]: 48000 RLU; Trimeric HA Binding: RLU [14]: 36300 RLU; Trimeric HA Binding: RLU [15]: 12200 RLU
2 | TCN-563 (5237_B21) (antibody, V domains shown) VH: QVQLAQSGAEVKRPGSSVKVSCTASGGIFRKNAISWVRQAPGQGLEWMGGIIAVFNTANYAQKFQGRVKITADESGNTAYMELSSLRSDDTAVYYCASHPKYFYGSGSYPDFWGQGTLVTVSS VL: QSALTQPRSVSGSPGQSVTISCTGSSSDVGASNSVSWYQQHPGKAPKLVIYDVTERPSGVPHRFSGSKSGNTASLTVSGLQPEDEADYFCCAYGGKYLVVFGGGTKVTVL | 27500 RLU | – | 36300 RLU | 31500 RLU | 21200 RLU | 47300 RLU | 17800 RLU | 11200 RLU | 1570 RLU | 23900 RLU | 5420 RLU | 26500 RLU | – | –
3 | TCN-557 (5081_A04) (antibody, V domains shown) VH: QVQLVQSGAEVKKPGASVKVSCKASGHTFTGYYIHWVRQAPGQGLEWMGWINPDSGATSSAQNFQGRVTMTGDTSSSTAYMELSRLSFDDTAVYYCARVLFTSPFDFWGEGTLVTVSS VL: QAVVTQEPSLAVSPGGTVTLTCGSSTGAVTRGHYPYWFQQKPGQAPRALIYDSAGNRHSWTPARFSGSLLGGKAALTLSGAQPEDEAEYYCLLSYSGVWVFGGGTKLTVL | – | 27200 RLU | – | – | – | – | – | – | – | – | – | – | 19200 RLU | Trimeric HA Binding: RLU [3]: 46100 RLU; Trimeric HA Binding: RLU [4]: 27000 RLU; Trimeric HA Binding: RLU [5]: 49600 RLU; Trimeric HA Binding: RLU [6]: 23300 RLU; Trimeric HA Binding: RLU [7]: 26400 RLU; Trimeric HA Binding: RLU [8]: 22200 RLU; Trimeric HA Binding: RLU [9]: 27300 RLU; Trimeric HA Binding: RLU [10]: 44400 RLU; Trimeric HA Binding: RLU [11]: 21300 RLU; Trimeric HA Binding: RLU [12]: 24000 RLU; Trimeric HA Binding: RLU [13]: 44900 RLU; Trimeric HA Binding: RLU [14]: 27100 RLU; Trimeric HA Binding: RLU [15]: 20000 RLU
4 | TCN-527 (5086_C06) (antibody, V domains shown) VH: QVQLQESGPGLVKPSETLSLNCAVSGGSISNYYWSWIRQPPGKGLEWIGYISYNGRPKYNPSLTSRVTISVDTSKDQFSLELRSVTAADTALYYCARETRFGELLSPYDAFEIWGQGTMVTVSS VL: DIQMTQSPSSLSASVGDRVTMTCRASQNIRSYLNWYQQRPGTAPKLLIYAASTLHSGVPSRFSGGGSGTDFTLTINNLQPEDFASYYCQQSYDNPQTFGQGTKVEIK | – | 26000 RLU | 20100 RLU | 20600 RLU | 21500 RLU | 23400 RLU | 48100 RLU | 20800 RLU | 15200 RLU | 23600 RLU | 49100 RLU | 19700 RLU | 11100 RLU | –
5 | TCN-530 (5248_H10a) (antibody, V domains shown) VH: QVQLVQSGAEVRKPGSSVKVSCKASGGPFMSYAIGWVRQAPGQGLEWMGGINPVFGRPHYAQKFQGRVTIATDDSTKTSYMELSSLTSEDTGMYYCASRYSRSSPGTFESWGQGTLVTVSS VL: EIVMTQFPATLSVSPGERVTLSCRASQSVSNNLAWYQQKPGQPPRLLIYDASTRATGVPAKFSGTGSGTEFTLSISSLQSEDFAVYYCQQYHNWPPSYSFGLGTKLEIK | 30400 RLU | 158 RLU | – | – | – | – | – | – | – | – | – | – | 139 RLU | Trimeric HA Binding: RLU [27]: 13800 RLU
6 | TCN-528 (5087_P17) (antibody, V domains shown) VH: QVQLVQSGSEVKKPGASVKVSCKASGYTFTNYDINWIRQAPGQGLEWMGWINPNSGTTGSAQRFQGRVTITVDTSITTVYMELSSLRSDDTAIYYCARGRELLRLQHFLTDSQSERRDCFDPWGQGTLVTVSS VL: DIQMTQSPSSLSASVGDRVTITCRANQDIGIYLNWYQQNPGKVPKLLLHGASSLQGGVPSRFSASGSGTDFTLTIHSLQPEDLATYYCQQSRRLPYTFGQGTRVELK | – | 24100 RLU | 22600 RLU | 23300 RLU | 44600 RLU | 39700 RLU | 25200 RLU | 23100 RLU | 21200 RLU | 36800 RLU | 47200 RLU | 26900 RLU | 9490 RLU | –
7 | TCN-522 (3212_I12) (antibody, V domains shown) VH: QVQLQQWGAGLLKPSETLSLTCTVSGGSLTDYSWNWIRQPPGKGLEWIGDTLHNGYTNYNPSLRGRVSISIDTSKNQVSLRLTSVTAADTALYYCARGSGGYGGFDYFGKLRTWDFWGQGTLVTVSS VL: DIQLTQSPSSLSASVGDRVTITCRASQGIRNDLGWYQQKPGNAPKRLIFGASSLQSGVPSRFSGSGSGTEFTLTISSLQPEDFATYYCLQHNSYPYTFGQGTKLEIK | – | – | 49300 RLU | 48200 RLU | 37500 RLU | 50500 RLU | 39600 RLU | 11900 RLU | 2030 RLU | 55400 RLU | 2170 RLU | 17300 RLU | 73 RLU | –

Reference: patent publication US20150086555A1
